These results are taken from PMC7026339, “Human bone morphogenetic protein-2 (hBMP-2) characterization by physical–chemical, immunological and biological assays” (AMB Express, 2020).

The data set deals with the molecule itself. The data set is described as follows: SDS-PAGE and Western blotting under non-reducing conditions; 15% acrylamide gel, Coomassie Blue G stain; Western blot with anti-hBMP-2 rabbit IgG; non-reducing conditions; shows the disulfide-linked dimer.

B1: E. coli-derived methionyl-human bone morphogenetic protein-2 (met-hBMP-2, GenScript) (natural protein)
chain: MQAKHKQRKRLKSSCKRHPLYVDFSDVGWNDWIVAPPGYHAFYCHGECPFPLADHLNSTNHAIVQTLVNSVNSKIPKACCVPTELSAISMLYLDENEKVVLKNYQDMVVEGCGCR
notes: initial methionine of methionyl-hBMP-2 (printed as 'initial Met'); human bone morphogenetic protein-2, mature protein of 114 AA (theoretical backbone 12,905 Da without the initial Met; 13,036 Da with it); theoretical mass of the dimer 26,072 Da; also called E. coli-derived hBMP-2; GenScript preparation; source: bought: GenScript (from E. coli), lyophilized, reconstituted in 20 mM acetic acid
The stoichiometry N is a count of units in the complex or per binding partner. For B1, the “stoichiometry N” value amounted to 2.

B2: CHO-derived hBMP-2 (Infuse, Medtronic), 114 amino acid glycosylated subunit (form A) (natural protein, human, UniProt P12643 283-396, looked up)
chain: QAKHKQRKRLKSSCKRHPLYVDFSDVGWNDWIVAPPGYHAFYCHGECPFPLADHLNSTNHAIVQTLVNSVNSKIPKACCVPTELSAISMLYLDENEKVVLKNYQDMVVEGCGCR
modifications: glycosylated at one site with high-mannose-type glycans
notes: human bone morphogenetic protein-2, authentic mature protein of 114 AA without initial Met (backbone 12,905 Da); Infuse is a disulfide-linked dimeric protein with two major subunit species of 114 and 131 amino acids; this molecule is the 114 AA subunit; also called 14,377 Da form; 114 AA monomer
As for B2, the “stoichiometry N” value came out at 2.
